How the values were obtained:
[1] = biological target: Csy complex with Cas7f K85A (P. aeruginosa (strain PA14)) (UniProt Q02ML9); assay: SPR
[2] = biological target: Csy complex (type I-F crRNA-guided surveillance complex), wild type (P. aeruginosa (strain PA14)) (UniProt Q02ML9); assay: cryo-EM structure

kd1 (dissociation rate) [1] | stoichiometry N [2] | Substance
0.00031 s⁻¹ | 2 | anti-CRISPR protein AcrF1 (natural protein)
 | 1 | anti-CRISPR protein AcrF2 (natural protein)
